125 sequences from the supplement of paper PMC9112550, “Optimization of the antimicrobial peptide Bac7 by deep mutational scanning” (BMC Biology, 2022) can be followed below.
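Also: peptides expressed intracellularly from a pBAD plasmid library in pooled LB shake-flask culture, induced with 0.3% L-arabinose, DNA abundance read by NGS, three biological replicates, DESeq2 with apeglm shrinkage.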

The test system of the data set is Escherichia coli TOP10. Put plainly: shrunken log2 fold change of peptide-encoding DNA abundance (4.5 h post-induction vs induction); higher = less antimicrobial activity (less host growth inhibition). To be noted: time post-induction: 4.5 h; library: site-saturation at positions 5, 18, 19, 20.
Regarding RRIRTRPPRLPRPRPRPVQTPRP, the “shrunken log2 fold change” value came out at 0.216.
Next, RRIRVRPPRLPRPRPRPIELPRP: -0.167; RRIRVRPPRLPRPRPRPWWWPRP: 0.0767; RRIRMRPPRLPRPRPRPLCEPRP: 0.653.
The result for RRIRNRPPRLPRPRPRPARGPRP reads 0.86; that for RRIRPRPPRLPRPRPRPNLPPRP, -0.142.
The result for RRIRNRPPRLPRPRPRPLFAPRP reads 0.0932.
Turning to RRIRPRPPRLPRPRPRPGNSPRP, the “shrunken log2 fold change” value came to 0.0886.
The result for RRIRSRPPRLPRPRPRPDFFPRP reads -0.0547; that for RRIRHRPPRLPRPRPRPFHKPRP, -0.0218; that for RRIRYRPPRLPRPRPRPGLGPRP, -0.0488.
Next, RRIRWRPPRLPRPRPRPWDVPRP: 0.0249.
The result for RRIRPRPPRLPRPRPRPMDQPRP reads -0.113; that for RRIRMRPPRLPRPRPRPRSRPRP, 0.997.
RRIRHRPPRLPRPRPRPPRCPRP: the “shrunken log2 fold change” value was found to be 0.526.
Next, RRIRGRPPRLPRPRPRPSWYPRP: -0.102; RRIRTRPPRLPRPRPRPWYMPRP: -0.0891; RRIRPRPPRLPRPRPRPVPAPRP: 0.361.
The result for RRIRYRPPRLPRPRPRPPLPPRP reads 0.184; that for RRIRDRPPRLPRPRPRPCVWPRP, 0.321; that for RRIRDRPPRLPRPRPRPNLPPRP, -0.0303.
For the sequence RRIRERPPRLPRPRPRPYATPRP, the “shrunken log2 fold change” value is -0.359.
The result for RRIRTRPPRLPRPRPRPYEGPRP reads -0.0536; that for RRIRRRPPRLPRPRPRPTPKPRP, 1.24; that for RRIRKRPPRLPRPRPRPYGRPRP, -0.0362.
The result for RRIRIRPPRLPRPRPRPFECPRP reads -0.0837; that for RRIRYRPPRLPRPRPRPEYHPRP, -0.0883; that for RRIRRRPPRLPRPRPRPCWHPRP, -0.0148.
The result for RRIRPRPPRLPRPRPRPDMSPRP reads -0.303.
Take RRIRQRPPRLPRPRPRPGRKPRP: the “shrunken log2 fold change” value was determined as 0.249.
The result for RRIRPRPPRLPRPRPRPVCKPRP reads 0.0717; that for RRIRARPPRLPRPRPRPHLEPRP, -0.124; that for RRIRIRPPRLPRPRPRPGPGPRP, 0.385.
With RRIRPRPPRLPRPRPRPSHWPRP, the “shrunken log2 fold change” value was determined as 0.959.
Next, RRIRARPPRLPRPRPRPANLPRP: 0.177; RRIRQRPPRLPRPRPRPVKPPRP: -0.00215; RRIRHRPPRLPRPRPRPDFEPRP: 0.18.
In the case of RRIRRRPPRLPRPRPRPYRKPRP, the “shrunken log2 fold change” value was determined as 0.0779.
For the sequence RRIRMRPPRLPRPRPRPWNPPRP, the “shrunken log2 fold change” value is 0.12.
Next, RRIRVRPPRLPRPRPRPDNFPRP: 0.0216.
Turning to RRIRRRPPRLPRPRPRPNCTPRP, the “shrunken log2 fold change” value amounted to 0.00402.
As to RRIRLRPPRLPRPRPRPWRFPRP, the “shrunken log2 fold change” value was 0.271.
For RRIRARPPRLPRPRPRPLIKPRP, the “shrunken log2 fold change” value was determined as 0.0844.
The result for RRIRGRPPRLPRPRPRPNVDPRP reads 0.715; that for RRIRWRPPRLPRPRPRPRDLPRP, 0.276; that for RRIRSRPPRLPRPRPRPTPQPRP, 0.388.
The result for RRIRTRPPRLPRPRPRPPHFPRP reads 0.7.
The result for RRIRQRPPRLPRPRPRPRPNPRP reads 0.183; that for RRIRRRPPRLPRPRPRPYCKPRP, -0.24; that for RRIRARPPRLPRPRPRPILRPRP, 0.0733.
With RRIRYRPPRLPRPRPRPALCPRP, the “shrunken log2 fold change” value is -0.0404.
Regarding RRIRGRPPRLPRPRPRPNTLPRP, the “shrunken log2 fold change” value is -0.145.
Next, RRIRWRPPRLPRPRPRPNAKPRP: 0.188; RRIRMRPPRLPRPRPRPHSVPRP: 0.0764.
As to RRIRKRPPRLPRPRPRPVIPPRP, the “shrunken log2 fold change” value is -0.26.
Next, RRIRSRPPRLPRPRPRPFQQPRP: 0.000179; RRIRDRPPRLPRPRPRPLNWPRP: 0.0327.
Next, RRIRVRPPRLPRPRPRPGEKPRP: -0.186; RRIRARPPRLPRPRPRPLDCPRP: 0.49; RRIRMRPPRLPRPRPRPATRPRP: 1.58.
The result for RRIRDRPPRLPRPRPRPTACPRP reads 0.388; that for RRIRDRPPRLPRPRPRPQPAPRP, 0.559; that for RRIRIRPPRLPRPRPRPWNVPRP, -0.00149.
Regarding RRIRNRPPRLPRPRPRPTNLPRP, the “shrunken log2 fold change” value was -0.0193.
RRIRHRPPRLPRPRPRPGYYPRP: the “shrunken log2 fold change” value was -0.318.
The result for RRIRFRPPRLPRPRPRPRLFPRP reads -0.0286; that for RRIRGRPPRLPRPRPRPLAEPRP, 2.89; that for RRIRWRPPRLPRPRPRPVETPRP, -0.0256.
Turning to RRIRLRPPRLPRPRPRPHRVPRP, the “shrunken log2 fold change” value is 0.0399.
Turning to RRIRYRPPRLPRPRPRPNSFPRP, the “shrunken log2 fold change” value was -0.0457.
Next, RRIRWRPPRLPRPRPRPFLSPRP: -0.0328; RRIRDRPPRLPRPRPRPQVTPRP: 0.0425.
For the sequence RRIRARPPRLPRPRPRPQTWPRP, the “shrunken log2 fold change” value worked out at 0.279.
The result for RRIRCRPPRLPRPRPRPGTPPRP reads 0.0685; that for RRIRCRPPRLPRPRPRPWKPPRP, 0.0199; that for RRIRRRPPRLPRPRPRPCVLPRP, -0.027.
The result for RRIRLRPPRLPRPRPRPISGPRP reads -0.462.
The result for RRIRERPPRLPRPRPRPLCRPRP reads -0.0964; that for RRIRFRPPRLPRPRPRPNDIPRP, -0.169; that for RRIRWRPPRLPRPRPRPPHGPRP, 0.428.
As to RRIRTRPPRLPRPRPRPEETPRP, the “shrunken log2 fold change” value worked out at 0.0325.
The result for RRIRRRPPRLPRPRPRPMYVPRP reads -0.203; that for RRIRLRPPRLPRPRPRPIITPRP, -0.613.
The result for RRIRRRPPRLPRPRPRPMTRPRP reads 0.315.
On to RRIRVRPPRLPRPRPRPESSPRP, for which the “shrunken log2 fold change” value turned out to be 0.00518.
Next, RRIRQRPPRLPRPRPRPNVNPRP: -0.543.
On to RRIRHRPPRLPRPRPRPRRDPRP, for which the “shrunken log2 fold change” value was -0.02.
The result for RRIRVRPPRLPRPRPRPNNHPRP reads -0.454; that for RRIRARPPRLPRPRPRPCFHPRP, -0.0446; that for RRIRDRPPRLPRPRPRPTNGPRP, -0.0673.
The result for RRIRWRPPRLPRPRPRPMGTPRP reads -0.00133; that for RRIRTRPPRLPRPRPRPWQYPRP, 0.0126.
Next, RRIRKRPPRLPRPRPRPHQKPRP: -0.0675.
Consider RRIRYRPPRLPRPRPRPWCTPRP, for which the “shrunken log2 fold change” value was -1.06.
With RRIRSRPPRLPRPRPRPECGPRP, the “shrunken log2 fold change” value stood at 0.646.
The result for RRIRVRPPRLPRPRPRPGCRPRP reads 0.5; that for RRIRFRPPRLPRPRPRPGHGPRP, 0.148; that for RRIRIRPPRLPRPRPRPENSPRP, 0.0169.
The result for RRIRERPPRLPRPRPRPSVEPRP reads -0.326; that for RRIRQRPPRLPRPRPRPQLQPRP, 0.112.
The result for RRIRQRPPRLPRPRPRPMYAPRP reads 0.151.
For the sequence RRIRERPPRLPRPRPRPHFSPRP, the “shrunken log2 fold change” value was 0.061.
The result for RRIRVRPPRLPRPRPRPRDAPRP reads 0.422; that for RRIRLRPPRLPRPRPRPFAYPRP, -0.163.
As to RRIRCRPPRLPRPRPRPDWMPRP, the “shrunken log2 fold change” value is -0.11.
On to RRIRGRPPRLPRPRPRPHNYPRP, for which the “shrunken log2 fold change” value is -0.248.
For the sequence RRIRKRPPRLPRPRPRPQAVPRP, the “shrunken log2 fold change” value turned out to be 0.0562.
Next, RRIRNRPPRLPRPRPRPLKNPRP: -0.234.
The result for RRIRPRPPRLPRPRPRPWWTPRP reads -0.311; that for RRIRVRPPRLPRPRPRPTSKPRP, -0.144.
Next, RRIRWRPPRLPRPRPRPPECPRP: -0.0729.
As for RRIRWRPPRLPRPRPRPKACPRP, the “shrunken log2 fold change” value was 0.105.
In the case of RRIRYRPPRLPRPRPRPLMEPRP, the “shrunken log2 fold change” value was -0.318.
The result for RRIRWRPPRLPRPRPRPEDTPRP reads -0.0372; that for RRIRRRPPRLPRPRPRPDCGPRP, 0.16; that for RRIRGRPPRLPRPRPRPAHMPRP, 0.145.
The result for RRIRVRPPRLPRPRPRPYIHPRP reads -0.757; that for RRIRSRPPRLPRPRPRPYEAPRP, -0.241; that for RRIRPRPPRLPRPRPRPRNLPRP, 0.067.
The result for RRIRARPPRLPRPRPRPNWWPRP reads 0.802; that for RRIRDRPPRLPRPRPRPEWLPRP, 0.382; that for RRIRQRPPRLPRPRPRPYKEPRP, -0.0137.
Take RRIRPRPPRLPRPRPRPPIWPRP: the “shrunken log2 fold change” value stood at 0.268.
In the case of RRIRRRPPRLPRPRPRPWFKPRP, the “shrunken log2 fold change” value is -0.139.
The result for RRIRPRPPRLPRPRPRPESYPRP reads -0.00116.
